Data set [1] addresses T1, ribosomal protein S8 (B. anthracis) (Bacillus anthracis, UniProt Q81VR6 1-132). As to the kind of experiment: 1:1 complex. The following applies: protein: recombinant; tags: N-terminal 6xHis (pET28b NheI-XhoI).
Data set [2] concerns the target ribosomal protein S8 (E. coli) (Escherichia coli, UniProt P0A7W7 1-130). Briefly: fluorescence anisotropy; 10 mM Mg acetate. The following applies: protein: recombinant, tags: N-terminal 6xHis (pET28b NheI-XhoI), label: 5'-fluorescein, hairpin. For orientation: Polarisation of emitted light reports the rotation of a fluorescent probe.
For data set [3], the target named is ribosomal protein S8 (B. anthracis) (Bacillus anthracis, UniProt Q81VR6 1-132). As to the kind of experiment: fluorescence anisotropy; 10 mM Mg acetate. The note with it: protein: recombinant; tags: N-terminal 6xHis (pET28b NheI-XhoI); label: 5'-fluorescein; hairpin, asymmetric internal loop.
Data set [4] has as its target T1, ribosomal protein S8 (B. anthracis). As to the kind of experiment: fluorescence anisotropy; 10 mM Mg acetate. The note with it: protein: recombinant; tags: N-terminal 6xHis (pET28b NheI-XhoI); label: 5'-fluorescein.

Consider GGGAUGCUCAGUGAUCCUUCGGGAUAUCAGGGCAUCCC (structured_RNA) [RNA-2 aptamer (crystal)], for which, in data set [1], the binding result was “binds”. Regarding CGCUGGCGGGAUUAAGUCGACUUCGGUCGAAACUGGUCCCGGCAGCG (structured_RNA) [helix 21 16S rRNA S8 site, fluorescein hairpin], the Kd (commonly the concentration at which binding is half-saturated) in data set [2] (asymmetric internal loop) came out at 28 ± 7 nM; in data set [3] it was 180 ± 60 nM.

In the case of CGCUGGCGGGUCAGUGAUCACUUCGGUGAUAUCAGACCCGGCAGCG (structured_RNA) [S8 RNA aptamer, fluorescein hairpin], the dissociation constant Kd stood at 19 ± 4 nM in data set [2] (symmetric internal loop) and 110 ± 30 nM in data set [4].

For the origin of these results see PMC4176348, “Structure analysis of free and bound states of an RNA aptamer against ribosomal protein S8 from Bacillus anthracis”.
